Measured values from patent US20230220042A1 (SHANGHAI JIAO TONG UNIVERSITY SCHOOL OF MEDICINE, published 2023).
Numbering of substitutions follows the chain as printed. Names and notes keep the numbering of the source.

T1: FcγRIIA^131H (human, UniProt P12318 34-217, biotin-labeled)
T1 construct: extracellular domain; Bought protein; also called RIIAH
T1 sequence (looked up): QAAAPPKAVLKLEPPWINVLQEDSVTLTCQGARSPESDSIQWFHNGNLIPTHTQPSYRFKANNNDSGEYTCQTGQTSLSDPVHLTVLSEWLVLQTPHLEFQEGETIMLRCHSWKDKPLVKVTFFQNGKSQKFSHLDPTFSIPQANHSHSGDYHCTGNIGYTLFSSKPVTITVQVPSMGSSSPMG

T2: FcγRIIA^131R (human, UniProt P12318 34-217, biotin-labeled)
T2 construct: extracellular domain; Bought protein; also called RIIAR
T2 sequence (looked up): T1 sequence (looked up) with H134R

T3: FcγRIIB (human, UniProt P31994 43-217, biotin-labeled)
T3 construct: extracellular domain; Bought protein; also called CD32b
T3 sequence (looked up): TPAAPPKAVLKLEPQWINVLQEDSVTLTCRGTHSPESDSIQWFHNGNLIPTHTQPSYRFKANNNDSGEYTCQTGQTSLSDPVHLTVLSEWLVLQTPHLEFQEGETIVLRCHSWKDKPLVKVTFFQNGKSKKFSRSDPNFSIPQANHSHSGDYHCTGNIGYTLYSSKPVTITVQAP

T4: Biotin-FcγRIIB (human, UniProt P31994 43-217, limits assumed, biotin-labelled)
T4 construct: Bought, biotin-labelled; used at 1 µg/ml for staining and sorting; also called human FcγRIIB; CD32b
T4 sequence (looked up): T3 sequence (looked up)

B1: anti-human OX40 IgG2 antibody Mut_28 (P233G/S267E/S298G) (antibody)
heavy: QVQLQESGPGLVKPSGTLSLTCAVSGGSISSSIWWSWVRQPPGKGLEWIGEIHHSGNTNCNPSLKSRVTISIDKSKNQFSLKLTSVTAADTAVYYCARAGTGTTLDYWGQGTLVTVSSASTKGPSVFPLAPCSRSTSESTAALGCLVKDYFPEPVTVSWNSGALTSGVHTFPAVLQSSGLYSLSSVVTVPSSNFGTQTYTCNVDHKPSNTKVDKTVERKCCVECPPCPAPGVAGPSVFLFPPKPKDTLMISRTPEVTCVVVDVEHEDPEVQFNWYVDGVEVHNAKTKPREEQFNGTFRVVSVLTVVHQDWLNGKEYKCKVSNKGLPAPIEKTISKTKGQPREPQVYTLPPSREEMTKNQVSLTCLVKGFYPSDIAVEWESNGQPENNYKTTPPMLDSDGSFFLYSKLTVDKSRWQQGNVFSCSVMHEALHNHYTQKSLSLSPGK
light: EIVLTQSPGTLSLSPGERATLSCRASQSVSGDYLAWYQQKLGQAPRLLIYGASIRATGIPDRFSGSGSGTDFTLTISKLEPEDFAVYYCQQYGSSPLTFGGGTKVEIKRTVAAPSVFIFPPSDEQLKSGTASVVCLLNNFYPREAKVQWKVDNALQSGNSQESVTEQDSKDSTYSLSSTLTLSKADYEKHKVYACEVTHQGLSSPVTKSFNRGEC
notes: Substitutions in Eu numbering; entries include an unstated signal peptide
B2: anti-human OX40 IgG2 antibody Mut_8 (V266L/L328W) (antibody, name in EU numbering)
heavy: B1 heavy with G231P, V263L, E264S, G295S, L325W
light: B1 light
notes: as for B1
B3: anti-human OX40 IgG2 antibody Mut_30 (V234Q/V266L/S267E/H268S/E269V) (antibody)
heavy: B1 heavy with G231P, V232Q, V263L, H265S, E266V, G295S
light: B1 light
notes: as for B1
B4: human IgG2 anti-mouse CD40 surface displayed antibody, Fc mutant P271A (antibody, name in EU numbering)
light chain (with the P2A rest): DTVLTQSPALAVSPGERVTISCRASDSVSTLMHWYQQKPGQQPKLLIYLASHLESGVPARFSGSGSGTDFTLTIDPVEADDTATYYCQQSWNDPWTFGGGTKLELKRTVAAPSVFIFPPSDEQLKSGTASVVCLLNNFYPREAKVQWKVDNALQSGNSQESVTEQDSKDSTYSLSSTLTLSKADYEKHKVYACEVTHQGLSSPVTKSFNRGECGSGATNFSLLKQAGDVEENPG
heavy chain: EVQLVESDGGLVQPGRSLKLPCAASGFTFSDYYMAWVRQAPTKGLEWVASISYDGSSTYYRDSVKGRFTISRDNAKSTLYLQMDSLRSEDTATYYCGRHSSYFDYWGQGVMVTVSSASTKGPSVFPLAPCSRSTSESTAALGCLVKDYFPEPVTVSWNSGALTSGVHTFPAVLQSSGLYSLSSVVTVPSSNFGTQTYTCNVDHKPSNTKVDKTVERKCCVECPPCPAPPVAGPSVFLFPPKPKDTLMISRTPEVTCVVVDVSHEDAEVQFNWYVDGVEVHNAKTKPREEQFNSTFRVVSVLTVVHQDWLNGKEYKCKVSNKGLPAPIEKTISKTKGQPREPQVYTLPPSREEMTKNQVSLTCLVKGFYPSDIAVEWESNGQPENNYKTTPPMLDSDGSFFLYSKLTVDKSRWQQGNVFSCSVMHEALHNHYTQKSLSLSPGKLEPPPSTVSNMATVAVLVVLGAAIVTGAVVAFVMKMRRRNTGGKGGDYALAPGSQTSDLSLPDCKVMVHDPHSLA
notes: as m1; positions are Eu numbers; copies: 2 + 2
B5: human IgG2 anti-mouse CD40 surface displayed antibody, Fc mutant P271V (antibody, name in EU numbering)
light chain (with the P2A rest): B4 light chain (with the P2A rest)
heavy chain: B4 heavy chain with A266V
notes: as for B4
B6: human IgG2 anti-mouse CD40 surface displayed antibody, Fc mutant H268N (antibody, name in EU numbering)
light chain (with the P2A rest): B4 light chain (with the P2A rest)
heavy chain: B4 heavy chain with H263N, A266P
notes: as for B4
B7: human IgG2 anti-mouse CD40 surface displayed antibody, Fc mutant S267N (antibody, name in EU numbering)
light chain (with the P2A rest): B4 light chain (with the P2A rest)
heavy chain: B4 heavy chain with S262N, A266P
notes: as for B4
B8: human IgG2 anti-mouse CD40 surface displayed antibody, Fc mutant S267W (antibody, name in EU numbering)
light chain (with the P2A rest): B4 light chain (with the P2A rest)
heavy chain: B4 heavy chain with S262W, A266P
notes: as for B4
B9: human IgG2 anti-mouse CD40 surface displayed antibody, Fc mutant P271S (antibody, name in EU numbering)
light chain (with the P2A rest): B4 light chain (with the P2A rest)
heavy chain: B4 heavy chain with A266S
notes: as for B4
B10: human IgG2 anti-mouse CD40 surface displayed antibody, Fc mutant P271L (antibody, name in EU numbering)
light chain (with the P2A rest): B4 light chain (with the P2A rest)
heavy chain: B4 heavy chain with A266L
notes: as for B4
B11: human IgG2 anti-mouse CD40 surface displayed antibody, Fc mutant P271I (antibody, name in EU numbering)
light chain (with the P2A rest): B4 light chain (with the P2A rest)
heavy chain: B4 heavy chain with A266I
notes: as for B4
B12: human IgG2 anti-mouse CD40 surface displayed antibody, Fc mutant L328A (antibody, name in EU numbering)
light chain (with the P2A rest): B4 light chain (with the P2A rest)
heavy chain: B4 heavy chain with A266P, L323A
notes: as for B4

Each binder was assayed against T5, FcγRI (human, UniProt P12314 16-292, biotin-labeled) (assay: ELISA, coated antibody, biotin-FcγR;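 for Absorbance value: antibody coated at 2 µg/mL at 100 µL per well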).
T5 construct: extracellular domain; Bought protein; also called CD64
T5 sequence (P12314 16-292): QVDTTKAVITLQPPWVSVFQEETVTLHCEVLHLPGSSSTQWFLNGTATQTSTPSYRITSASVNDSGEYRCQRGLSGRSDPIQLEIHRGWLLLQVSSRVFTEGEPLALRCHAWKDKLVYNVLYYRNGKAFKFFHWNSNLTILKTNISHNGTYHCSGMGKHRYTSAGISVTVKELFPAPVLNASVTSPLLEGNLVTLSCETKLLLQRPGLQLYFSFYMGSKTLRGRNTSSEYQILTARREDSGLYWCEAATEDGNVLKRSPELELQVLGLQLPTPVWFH

Row | Absorbance value [A650] | Relative binding affinity RI/G1 [ratio] | Binder
1 | 0.13 | 0.05 | B1
2 | 0.14 | 0.05 | B2
3 | 0.12 | 0.05 | B3

The binders below were run against T1, FcγRIIA^131H (assay: ELISA, coated antibody, biotin-FcγR;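 for Absorbance value: antibody coated at 2 µg/mL at 100 µL per well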).

Row | Absorbance value [A650] | Relative binding affinity RIIAH/G1 [ratio] | Binder
4 | 0.14 | 0.24 | B1
5 | 0.52 | 0.9 | B2
6 | 0.18 | 0.32 | B3

What follows are binders tested against T2, FcγRIIA^131R (assay: ELISA, coated antibody, biotin-FcγR;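 for Absorbance value: antibody coated at 2 µg/mL at 100 µL per well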).

Row | Absorbance value [A650] | Relative binding affinity RIIAR/G1 [ratio] | Binder
7 | 0.35 | 1.35 | B1
8 | 0.34 | 1.3 | B2
9 | 0.26 | 1.01 | B3

These binders were tested against T3, FcγRIIB (assay: ELISA, coated antibody, biotin-FcγR;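 for Absorbance value: antibody coated at 2 µg/mL at 100 µL per well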).

Row | Absorbance value [A650] | Increased factor of RIIB binding compared with wild-type IgG2 [fold] | Relative binding affinity RIIB/G1 [ratio] | Binder
10 | 0.88 | 11.8 | 1.17 | B1
11 | 1.07 | 14.3 | 1.42 | B2
12 | 0.8 | 10.7 | 1.06 | B3

These binders were tested against T6, FcγRIIIA^158F (human, UniProt P08637 17-208, biotin-labeled) (assay: ELISA, coated antibody, biotin-FcγR;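 for Absorbance value: antibody coated at 2 µg/mL at 100 µL per well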).
T6 construct: extracellular domain; Bought protein; also called RIIIAF
T6 sequence (P08637 17-208): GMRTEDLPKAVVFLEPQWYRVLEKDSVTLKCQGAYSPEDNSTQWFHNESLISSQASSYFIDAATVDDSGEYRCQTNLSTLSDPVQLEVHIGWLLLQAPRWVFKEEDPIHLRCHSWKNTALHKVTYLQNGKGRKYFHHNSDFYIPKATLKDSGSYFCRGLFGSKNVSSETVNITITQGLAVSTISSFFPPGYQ

Row | Absorbance value [A650] | Relative binding affinity RIIIAF/G1 [ratio] | Binder
13 | 0.08 | 0.44 | B1
14 | 0.08 | 0.44 | B2
15 | 0.06 | 0.33 | B3

Each binder was assayed against T7, FcγRIIIA^158V (human, UniProt P08637 17-208, biotin-labeled) (assay: ELISA, coated antibody, biotin-FcγR;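 for Absorbance value: antibody coated at 2 µg/mL at 100 µL per well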).
T7 construct: extracellular domain; Bought protein; also called RIIIAV; CD16a 158V
T7 sequence (P08637 17-208 F176V): as the sequence (P08637 17-208) above, with F160V counted along it

Row | Absorbance value [A650] | Relative binding affinity RIIIAV/G1 [ratio] | Binder
16 | 0.08 | 0.08 | B1
17 | 0.07 | 0.07 | B2
18 | 0.06 | 0.07 | B3

What follows are binders tested against T4, Biotin-FcγRIIB (assay: FACS sorting of displayed Fc library on biotin-FcγRIIB, NGS).

Row | Increased factor b Site 1 (point mutation/wild-type) | Increased factor b Site 2 (point mutation/wild-type) | Binder
19 | 0.1 | – | B4
20 | – | 0.7 | B5

The binders below were run against T3, FcγRIIB (assay: ELISA; relative affinity to FcγRIIB over that to FcγRIIA131R).

Row | RIIB/RIIAR [ratio] | Binder
21 | 0.87 | B1
22 | 1.09 | B2
23 | 1.05 | B3

The binders below were run against T4, Biotin-FcγRIIB (assay: magnetic sorting on biotin-FcγRIIB with unlabelled activating FcγRs, NGS; Library2).
Description: (§1) 3T3 cells were collected by trypsin digestion, and a single cell suspension was prepared. […] The cells were incubated for 15 minutes on ice and then washed twice with MACS buffer and re-suspended in 100 μl MACS buffer. Twenty-five μl anti-Biotin magnetic beads were added, and the cells were incubated for 15 minutes on ice and then washed once with MACS buffer and re-suspended to 500 μl, and added to the LS column put in the magnetic field. The effluent was collected, washed with 3 mL of MACS buffer and collected; The LS column was then removed out of the magnetic field, and 5 mL of MACS buffer was used to rapidly elute the remaining cells from the sorting column to collect positive cells, which are the high I/A ratio cells.
(§2) The high-FcγRIIB-affinity cells obtained from the above flow cytometry sorting are further sorted by magnetic-activated sorting. The cells are incubated with the mixture of Biotin-labeled FcγRIIB and non-labeled activating FcγRs, and then the labeled cells are sorted by anti-Biotin magnetic beads. The enrichment ratios after sorting relative to before sorting are analyzed by NGS.

Row | Enrichment factor (percentage after sorting/percentage before sorting) | Increased factor (mutation enrichment factor/wild-type enrichment factor) | Percentage after sorting/unbinding percentage | Percentage before sorting/unbinding percentage | Binder
24 | 2.31 | 2.79 | 662 | 286 | B6
25 | 2.91 | 3.51 | – | – | B7
26 | 1.86 | 2.25 | 52.5 | 28.2 | B8
27 | 2.74 | 3.3 | 22.2 | 8.1 | B9
28 | 2.77 | 3.33 | 71.2 | 25.7 | B4
29 | 4.43 | 5.34 | 143 | 32.3 | B10
30 | 3.52 | 4.24 | 1090 | 311 | B5
31 | 2.63 | 3.17 | – | – | B11

The binders below were run against T4, Biotin-FcγRIIB (assay: magnetic sorting on biotin-FcγRIIB with unlabelled activating FcγRs, NGS; LibraryMix #4).
Description: as §1, §2

Row | Enrichment factor (percentage after sorting/percentage before sorting) | Increased factor (mutation enrichment factor/wild-type enrichment factor) | Binder
32 | 3.21 | 3.41 | B12
